# Reference: patent publication US8026218 (UNIVERSITY OF ARIZONA, dated 2011)
# Square brackets hold non-standard residues; d marks the D form. Ends that are not written are not given here. * marks the point of attachment. NH(3,5-(CF3)2-benzyl) = FC(F)(F)c1cc(CN*)cc(C(F)(F)F)c1; OBzl(3,5-(CF3)2) = FC(F)(F)c1cc(CO*)cc(C(F)(F)F)c1; NHBn = c1ccc(CN*)cc1; OBn = c1ccc(CO*)cc1
# B1: TyrDAlaGlyPheSer(OGlu)ProLeuTrpNHBn(CF3)2 (TY042) (peptide)
# peptide: Y[dA]GFSPLW-{NH(3,5-(CF3)2-benzyl)}
# modifications: not fully specified (residue 5); printed as TyrDAlaGlyPheSer(OGlu)ProLeuTrpNHBn(CF3)2
# B2: H-Tyr-D-Ala-Gly-Phe-Nle-Pro-Leu-Trp-O-3,5-Bzl(CF3)2 (peptide)
# peptide: YAGFXPLW
# modifications: D-Ala at 2; Nle (norleucine, written X) at 5; C-terminal 3,5-bis(trifluoromethyl)benzyl ester
# notes: TFA salt; also called TY018
# Columns and labels:
# human NK1 receptor [1] = target: T1, human NK1 receptor (human, UniProt P25103 1-407); test: competition vs [3H]substance P, membranes of hNK1-transfected CHO cells
# T1 construct: whole, on cells; Assayed as membrane preparations of transfected CHO cells; also called hNK1; human neurokinin-1 receptor
# T1 sequence (P25103 whole entry): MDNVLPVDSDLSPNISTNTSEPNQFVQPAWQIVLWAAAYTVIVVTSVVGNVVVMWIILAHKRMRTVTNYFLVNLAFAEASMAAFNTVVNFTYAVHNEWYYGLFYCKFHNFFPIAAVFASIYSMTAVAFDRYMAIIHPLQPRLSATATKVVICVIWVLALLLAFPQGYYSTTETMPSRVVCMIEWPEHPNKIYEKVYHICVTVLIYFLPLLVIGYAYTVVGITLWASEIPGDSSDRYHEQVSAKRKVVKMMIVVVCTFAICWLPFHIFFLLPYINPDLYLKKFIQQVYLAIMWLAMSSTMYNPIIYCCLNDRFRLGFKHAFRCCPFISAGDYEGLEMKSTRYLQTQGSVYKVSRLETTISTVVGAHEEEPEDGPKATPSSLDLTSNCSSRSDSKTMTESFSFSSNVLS
# rat NK1 receptor [2] = target: T2, rat NK1 receptor (rat, UniProt P14600 1-407); test: competition vs [3H]substance P, membranes of rNK1-transfected CHO cells
# T2 construct: whole, on cells; Assayed as membrane preparations of transfected CHO cells; also called rNK1; rNK-1
# T2 sequence (P14600 whole entry): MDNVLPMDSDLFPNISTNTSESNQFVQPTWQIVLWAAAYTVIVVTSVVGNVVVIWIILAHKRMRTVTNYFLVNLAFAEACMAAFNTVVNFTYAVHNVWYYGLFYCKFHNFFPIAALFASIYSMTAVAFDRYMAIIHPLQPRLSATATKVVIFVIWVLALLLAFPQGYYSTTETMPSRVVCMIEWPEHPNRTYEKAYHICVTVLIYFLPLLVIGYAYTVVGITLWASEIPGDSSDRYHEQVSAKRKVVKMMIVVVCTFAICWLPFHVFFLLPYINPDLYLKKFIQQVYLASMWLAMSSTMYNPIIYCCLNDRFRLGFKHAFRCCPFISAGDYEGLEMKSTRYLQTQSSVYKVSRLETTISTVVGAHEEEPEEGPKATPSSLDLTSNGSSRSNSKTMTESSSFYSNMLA
# human NK1 receptor [3] = target: T3, human NK1 receptor (human, UniProt P25103 1-407); test: radioligand competition vs [3H]substance P, membranes of hNK1 CHO cells
# T3 construct: whole, on cells; Used as membrane preparations of transfected CHO cells; also called hNK1; human neurokinin-1 receptor
# T3 sequence (P25103 whole entry): as the sequence (P25103 whole entry) above
# rat NK1 receptor [4] = target: T4, rat NK1 receptor (rat, UniProt P14600 1-407); test: radioligand competition vs [3H]substance P, membranes of rNK1 CHO cells
# T4 construct: whole, on cells; Used as membrane preparations of transfected CHO cells; also called rNK1; rat neurokinin-1 receptor
# T4 sequence (P14600 whole entry): as the sequence (P14600 whole entry) above
# human δ opioid receptor [5] = target: T5, human δ opioid receptor (human, UniProt P41143 1-372); test: radioligand competition vs [3H]DPDPE, membranes of hDOR cells
# T5 construct: whole, on cells; Used as crude membrane preparations of the transfected cells; also called hDOR; DOR
# T5 sequence (P41143 whole entry, stated change not applied): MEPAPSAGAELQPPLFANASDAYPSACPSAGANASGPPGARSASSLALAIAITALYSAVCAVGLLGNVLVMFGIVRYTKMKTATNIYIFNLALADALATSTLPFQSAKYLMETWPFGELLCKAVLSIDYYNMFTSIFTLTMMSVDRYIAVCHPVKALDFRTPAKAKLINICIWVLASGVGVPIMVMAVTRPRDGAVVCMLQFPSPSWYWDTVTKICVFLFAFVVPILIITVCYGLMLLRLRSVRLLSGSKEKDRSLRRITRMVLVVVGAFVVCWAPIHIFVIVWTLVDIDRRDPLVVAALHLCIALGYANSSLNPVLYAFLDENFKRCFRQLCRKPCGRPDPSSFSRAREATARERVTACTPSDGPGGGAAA
# human δ opioid receptor [6] = target: T5, human δ opioid receptor; test: cell-based or functional assay
# [7] = target: µ opioid receptor of the guinea pig isolated ileum (guinea pig, UniProt P97266 1-98); test: cell-based or functional assay
# guinea pig NK1 receptor [8] = target: guinea pig NK1 receptor (guinea pig, UniProt P30547 1-407); test: cell-based or functional assay
# Target sequence in this assay (P30547 whole entry): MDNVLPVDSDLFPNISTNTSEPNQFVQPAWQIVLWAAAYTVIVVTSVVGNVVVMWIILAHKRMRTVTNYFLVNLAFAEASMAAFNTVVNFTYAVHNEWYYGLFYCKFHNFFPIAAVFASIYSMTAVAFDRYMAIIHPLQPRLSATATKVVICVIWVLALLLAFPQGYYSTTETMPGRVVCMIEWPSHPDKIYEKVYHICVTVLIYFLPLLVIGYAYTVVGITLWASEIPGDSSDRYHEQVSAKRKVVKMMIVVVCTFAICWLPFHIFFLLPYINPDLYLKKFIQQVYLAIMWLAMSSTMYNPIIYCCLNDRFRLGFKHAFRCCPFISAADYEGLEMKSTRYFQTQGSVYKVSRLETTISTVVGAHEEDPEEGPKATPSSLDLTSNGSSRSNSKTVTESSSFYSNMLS
# rat µ opioid receptor [9] = target: T6, rat µ opioid receptor (rat, UniProt P33535 1-398); test: cell-based or functional assay
# rat µ opioid receptor [10] = target: T6, rat µ opioid receptor; test: radioligand competition vs [3H]DAMGO, membranes of rMOR cells
# human δ opioid receptor [11] = target: T7, human δ opioid receptor (human, UniProt P41143 1-372); test: competition vs [3H]DPDPE, membranes of hDOR-transfected HN9.10 cells
# T7 construct: whole, on cells; Assayed as membrane preparations of transfected cells; also called hDOR; DOR
# T7 sequence (P41143 whole entry, stated change not applied): as the sequence (P41143 whole entry, stated change not applied) above
# human δ opioid receptor [12] = target: T7, human δ opioid receptor; test: cell-based or functional assay; remark: listed apart in the source
# guinea pig NK1 receptor [13] = target: guinea pig NK1 receptor (guinea pig, UniProt P30547 1-407); test: cell-based or functional assay; remark: listed apart in the source
# Target sequence in this assay (P30547 whole entry): as the sequence (P30547 whole entry) above
# [14] = target: µ opioid receptor of the guinea pig isolated ileum (guinea pig); test: cell-based or functional assay
# Sequence of µ opioid receptor of the guinea pig isolated ileum (P97266 whole entry): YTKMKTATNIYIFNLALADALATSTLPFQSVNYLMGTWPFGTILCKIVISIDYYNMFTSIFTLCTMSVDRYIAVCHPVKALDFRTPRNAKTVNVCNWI
# T6 sequence (P33535 whole entry): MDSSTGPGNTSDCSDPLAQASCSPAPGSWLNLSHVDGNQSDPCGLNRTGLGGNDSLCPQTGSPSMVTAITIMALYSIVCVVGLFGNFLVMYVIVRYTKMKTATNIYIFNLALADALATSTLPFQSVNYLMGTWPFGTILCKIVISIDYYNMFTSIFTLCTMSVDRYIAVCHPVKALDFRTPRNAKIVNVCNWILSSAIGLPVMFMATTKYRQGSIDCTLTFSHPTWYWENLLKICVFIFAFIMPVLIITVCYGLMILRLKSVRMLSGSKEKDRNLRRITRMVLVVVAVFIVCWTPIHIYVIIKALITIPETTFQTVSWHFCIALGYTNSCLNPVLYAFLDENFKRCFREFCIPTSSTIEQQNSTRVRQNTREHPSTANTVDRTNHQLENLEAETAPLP
Binder,Ki (human NK1 receptor [3]),Ki (rat NK1 receptor [4]),Ki (human δ opioid receptor [5]),GTP binding hDOR EC50 (human δ opioid receptor [6]),GTP binding hDOR Emax (human δ opioid receptor [6]),GPI/LMMP opioid(mu) agonist IC50 [7],GPI/LMMP SP antagonist Ke (guinea pig NK1 receptor [8]),GTP binding rMOR EC50 (rat µ opioid receptor [9]),GTP binding rMOR Emax (rat µ opioid receptor [9]),Ki (rat µ opioid receptor [10]),also measured
"H-Y[dA]GFPLW-NHBn (also: TFA salt, TFA salt; also called TY008) [H-Tyr-DAla-Gly-Phe-Pro-Leu-Trp-NH-Bzl]",–,–,–,–,–,–,–,–,–,–,Ki (human NK1 receptor [1]): 14 nM
"H-Y[dA]GFPLW-{OBzl(3,5-(CF3)2)} (also: TFA salt, TFA salt; also called TY001) [H-Tyr-DAla-Gly-Phe-Pro-Leu-Trp-O-3,5-Bzl(CF3)2]",–,–,–,–,–,–,–,–,–,–,Ki (human NK1 receptor [1]): 0.0023 nM; LogIC50 (human NK1 receptor [1]): -11.3; Ki (rat NK1 receptor [2]): 1.6 nM; LogIC50 (rat NK1 receptor [2]): -8.3
"Y[dA]GF[dF]PLW-{OBzl(3,5-(CF3)2)} [TyrDAlaGlyPheDPheProLeuTrpOBn(CF3)2 (TY007)]",1.3 nM,3 nM,110 nM,16.7 nM,22.9%,9.2%,69.6 nM,345 nM,23.6%,410 nM,–
"Y[dA]GFLPLW-{OBzl(3,5-(CF3)2)} [TyrDAlaGlyPheLeuProLeuTrpOBn(CF3)2 (TY004)]",0.016 nM,0.8 nM,5 nM,9.6 nM,42.5%,341 nM,19.4 nM,–,44.5%,23.3 nM,–
"Y[dA]GFGPLW-{OBzl(3,5-(CF3)2)} [TyrDAlaGlyPheGlyProLeuTrpOBn(CF3)2 (TY006)]",0.016 nM,1 nM,36.1 nM,50.2 nM,33.6%,384 nM,5.4 nM,41.7 nM,35.9%,27 nM,–
B1,0.00027 nM,1.45 nM,58.5 nM,51.9 nM,47%,1890 nM,2.83 nM,176 nM,28%,256 nM,–
Y[dA]GFFPLW-OBn [TyrDAlaGlyPhePheProLeuTrpOBn (TY014)],0.265 nM,124 nM,11.5 nM,25.6 nM,137%,–,–,76 nM,72.3%,36.3 nM,–
"Y[dA]GFFPLW-{OBzl(3,5-(CF3)2)} [TyrDAlaGlyPhePheProLeuTrpOBn(CF3)2 (TY003)]",0.021 nM,0.88 nM,14.6 nM,20.8 nM,39%,6.6 % @ 1 uM,14.4 nM,58.7 nM,36.3%,28.3 nM,–
"H-Y[dA]GFPLW-{NH(3,5-(CF3)2-benzyl)} (also: TFA salt, TFA salt; also called TY012) [H-Tyr-D-Ala-Gly-Phe-Pro-Leu-Trp-NH-3,5-Bzl(CF3)2]",–,–,–,–,–,–,–,–,–,–,Ki (human NK1 receptor [1]): 0.61 nM; Ki (rat NK1 receptor [2]): 33 nM; LogIC50 (rat NK1 receptor [2]): -7
B2,–,–,–,–,–,–,–,–,–,–,Ki (human δ opioid receptor [11]): 1.8 nM; LogIC50 (human δ opioid receptor [11]): -8.42; [35S]GTP-γ-S binding EC50 (human δ opioid receptor [12]): 4 nM; [35S]GTP-γ-S binding Emax (human δ opioid receptor [12]): 129%; [35S]GTP-γ-S binding LogEC50 (human δ opioid receptor [12]): -8.4; Substance P GPI antagonist Ke (guinea pig NK1 receptor [13]): 7.9 nM; GPI (µ) opioid agonist IC50 [14]: 372 nM
"H-Y[dA]GFPLW-{NMe‑Bn(CF3)2} (also: TFA salt, TFA salt; also called TY013) [H-Tyr-D-Ala-Gly-Phe-Pro-Leu-Trp-NMe-3,5-Bzl(CF3)2]",–,–,–,–,–,–,–,–,–,–,LogIC50 (human NK1 receptor [1]): -8.5; Ki (rat NK1 receptor [2]): 6.1 nM
